From PMC9482650, “Quantitative fragmentomics allow affinity mapping of interactomes” (Nature Communications, 2022)

Assays:
Experiment in all cases: holdup assay
Set-up in all cases: key: below the threshold = too weak to quantify, mostly under pKd 3.1 to 4
[1] = molecular target: PARD3_3, Q8TEW0
[2] = molecular target: LDB3, O75112
[3] = molecular target: GRIP2_5, Q9C0E4
[4] = molecular target: Inadl_10, Q8NI35
[5] = molecular target: T1, MPP2, Q14168
T1 sequence (Q14168 180-250, limits assumed, looked up): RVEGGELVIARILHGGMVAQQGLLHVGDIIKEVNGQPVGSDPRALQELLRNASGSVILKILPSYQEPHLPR

[6] = molecular target: DLG1_1, Q12959
[7] = molecular target: T2, MPDZ_10, O75970
T2 sequence (O75970 1624-1722, limits assumed, looked up): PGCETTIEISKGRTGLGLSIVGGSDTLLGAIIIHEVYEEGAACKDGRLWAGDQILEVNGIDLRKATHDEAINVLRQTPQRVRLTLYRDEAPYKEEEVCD

[8] = molecular target: GORASP1, Q9BQQ3
[9] = molecular target: T3, FRMPD1, Q5SYB0
T3 sequence (Q5SYB0 52-145, limits assumed, looked up): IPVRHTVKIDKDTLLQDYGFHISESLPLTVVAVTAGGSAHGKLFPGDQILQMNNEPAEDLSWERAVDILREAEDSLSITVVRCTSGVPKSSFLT

[10] = molecular target: T4, DLG3_1, Q92796
T4 sequence (Q92796 125-227, limits assumed, looked up): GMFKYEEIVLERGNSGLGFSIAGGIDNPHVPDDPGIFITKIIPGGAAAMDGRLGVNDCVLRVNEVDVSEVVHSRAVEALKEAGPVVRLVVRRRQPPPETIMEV

[11] = molecular target: T5, TX1BP3, O14907
T5 sequence (O14907 10-122, limits assumed, looked up): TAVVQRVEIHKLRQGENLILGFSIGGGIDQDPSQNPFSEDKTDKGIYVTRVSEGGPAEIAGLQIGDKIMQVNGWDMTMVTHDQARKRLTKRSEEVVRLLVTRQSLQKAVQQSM

[12] = molecular target: SCRIB_3, Q14160
[13] = molecular target: T6, APBA2_2, Q99767
T6 sequence (Q99767 654-744, limits assumed, looked up): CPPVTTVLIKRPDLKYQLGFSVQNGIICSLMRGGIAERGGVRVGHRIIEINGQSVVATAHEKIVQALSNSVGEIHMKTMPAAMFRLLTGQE

[14] = molecular target: GRIP2_6, Q9C0E4
[15] = molecular target: DLG2_3, Q15700
[16] = molecular target: T7, SIPA1L2, Q9P2F8
T7 sequence (Q9P2F8 945-1036, limits assumed, looked up): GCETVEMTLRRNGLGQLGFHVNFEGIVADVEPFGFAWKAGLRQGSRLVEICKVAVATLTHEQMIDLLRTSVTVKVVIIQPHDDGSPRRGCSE

[17] = molecular target: GRIP2_4, Q9C0E4
[18] = molecular target: NHERF4_2, Q86UT5
[19] = molecular target: GRIP2_7, Q9C0E4
[20] = molecular target: MAGI1_2, Q96QZ7
[21] = molecular target: NOS1, P29475
[22] = molecular target: T8, DVL3, Q92997
T8 sequence (Q92997 244-331, limits assumed, looked up): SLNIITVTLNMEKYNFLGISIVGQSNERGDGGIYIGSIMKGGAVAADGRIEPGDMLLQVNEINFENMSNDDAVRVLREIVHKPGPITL

[23] = molecular target: T9, LNX2_2, Q8N448
T9 sequence (Q8N448 334-432, limits assumed, looked up): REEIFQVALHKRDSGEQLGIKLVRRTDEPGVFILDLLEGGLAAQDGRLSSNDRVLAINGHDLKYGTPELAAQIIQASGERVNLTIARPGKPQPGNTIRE

[24] = molecular target: T10, DFNB31_2, Q9P202
T10 sequence (Q9P202 274-371, limits assumed, looked up): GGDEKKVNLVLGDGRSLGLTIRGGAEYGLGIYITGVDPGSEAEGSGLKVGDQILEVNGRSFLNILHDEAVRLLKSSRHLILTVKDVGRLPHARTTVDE

[25] = molecular target: T11, LIN7C, Q9NUP9
T11 sequence (Q9NUP9 88-185, limits assumed, looked up): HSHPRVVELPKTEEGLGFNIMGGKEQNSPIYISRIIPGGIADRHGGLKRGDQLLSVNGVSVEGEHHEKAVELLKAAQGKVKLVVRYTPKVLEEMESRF

[26] = molecular target: HTRA2, O43464
[27] = plain residues with an end cap or a label only (N-terminal biotin on a linker: ttds)
[28] = plain residues with an end cap or a label only (N-terminal biotin on a linker: ado-ado)

GRIP2_4, Q9C0E4, sequence (Q9C0E4 446-548): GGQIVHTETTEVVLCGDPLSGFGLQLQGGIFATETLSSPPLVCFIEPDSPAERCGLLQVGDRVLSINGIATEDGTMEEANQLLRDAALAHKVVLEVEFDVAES
GRIP2_6, Q9C0E4, sequence (Q9C0E4 648-740): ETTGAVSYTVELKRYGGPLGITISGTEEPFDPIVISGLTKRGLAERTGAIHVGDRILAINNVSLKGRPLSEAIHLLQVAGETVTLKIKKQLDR
GRIP2_5, Q9C0E4, sequence (Q9C0E4 544-642): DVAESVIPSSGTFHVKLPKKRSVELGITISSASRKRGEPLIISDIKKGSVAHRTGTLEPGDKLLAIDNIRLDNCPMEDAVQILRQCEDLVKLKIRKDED
SCRIB_3, Q14160, sequence (Q14160 999-1103): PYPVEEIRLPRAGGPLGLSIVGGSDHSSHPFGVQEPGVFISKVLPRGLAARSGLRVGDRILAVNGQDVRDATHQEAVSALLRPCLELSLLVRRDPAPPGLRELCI
GORASP1, Q9BQQ3, sequence (Q9BQQ3 1-208): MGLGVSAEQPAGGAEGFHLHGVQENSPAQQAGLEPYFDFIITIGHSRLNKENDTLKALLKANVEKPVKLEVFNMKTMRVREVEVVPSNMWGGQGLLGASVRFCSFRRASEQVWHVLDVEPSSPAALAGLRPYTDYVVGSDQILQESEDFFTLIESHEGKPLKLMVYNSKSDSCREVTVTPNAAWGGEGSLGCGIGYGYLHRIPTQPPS
Inadl_10, Q8NI35, sequence (Q8NI35 1673-1763): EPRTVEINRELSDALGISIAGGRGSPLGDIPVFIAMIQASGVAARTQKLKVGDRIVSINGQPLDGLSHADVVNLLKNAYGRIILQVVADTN
MAGI1_2, Q96QZ7, sequence (Q96QZ7 456-580): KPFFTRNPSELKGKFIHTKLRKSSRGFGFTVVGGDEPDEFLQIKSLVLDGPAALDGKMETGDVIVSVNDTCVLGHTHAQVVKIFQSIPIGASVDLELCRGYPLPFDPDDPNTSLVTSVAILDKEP
NHERF4_2, Q86UT5, sequence (Q86UT5 220-308): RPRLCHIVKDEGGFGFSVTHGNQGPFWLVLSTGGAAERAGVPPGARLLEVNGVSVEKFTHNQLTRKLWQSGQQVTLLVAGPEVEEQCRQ
PARD3_3, Q8TEW0, sequence (Q8TEW0 582-685): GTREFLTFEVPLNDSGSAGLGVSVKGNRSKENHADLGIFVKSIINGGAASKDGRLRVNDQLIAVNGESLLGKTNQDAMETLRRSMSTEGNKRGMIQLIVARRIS
HTRA2, O43464, sequence (O43464 355-458): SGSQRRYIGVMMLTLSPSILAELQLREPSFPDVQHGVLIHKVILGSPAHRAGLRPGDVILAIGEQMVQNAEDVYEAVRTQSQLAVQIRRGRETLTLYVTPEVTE
NOS1, P29475, sequence (P29475 9-101): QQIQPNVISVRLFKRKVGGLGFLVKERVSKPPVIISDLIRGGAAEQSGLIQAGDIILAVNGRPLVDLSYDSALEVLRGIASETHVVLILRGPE
LDB3, O75112, sequence (O75112 1-94): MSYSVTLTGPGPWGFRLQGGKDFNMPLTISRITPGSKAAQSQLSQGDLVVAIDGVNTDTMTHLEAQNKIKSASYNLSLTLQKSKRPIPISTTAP
GRIP2_7, Q9C0E4, sequence (Q9C0E4 934-1023): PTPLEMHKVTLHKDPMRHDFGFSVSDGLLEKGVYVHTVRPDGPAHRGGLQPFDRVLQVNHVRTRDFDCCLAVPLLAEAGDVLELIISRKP

With LCALPKVTTV [AGMAT, Q9BSE5] the pKd [1, 27] was 3.62, the pKd [2, 27] was “below the threshold” and the pKd [3, 27] was “below the threshold”. The pKd [4, 27] was “below the threshold”, the pKd [5, 27] was “below the threshold” and the pKd [6, 27] was 4.97. The pKd [7, 27] was 4.14, the pKd [8, 27] was 4.11 and the pKd [9, 27] was “below the threshold”. The pKd [10, 27] was 4.27, the pKd [11, 27] was 4.07 and the pKd [12, 27] was 4.24. For the same binder, the pKd [13, 27] was “below the threshold”, the pKd [14, 27] was “below the threshold” and the pKd [15, 27] was 4.64. The pKd [16, 27] was “below the threshold”, the pKd [17, 27] was “below the threshold” and the pKd [18, 27] was “below the threshold”. The pKd [19, 27] was “below the threshold”, the pKd [20, 27] was 4.1 and the pKd [21, 27] was 3.7. For the same binder, the pKd [22, 27] was “below the threshold”, the pKd [23, 27] was 5.21 and the pKd [24, 27] was 3.77. It also gave a pKd [25, 27] of 4.38 and a pKd [26, 27] of 3.8.

For TETASVCTKV [SLC23A1, Q9UHI7], the pKd [1, 28] was “below the threshold”, the pKd [2, 28] was “below the threshold” and the pKd [3, 28] was “below the threshold”. The pKd [4, 28] was 3.78, the pKd [5, 28] was “below the threshold” and the pKd [6, 28] was 3.84. The pKd [7, 28] was 3.73, the pKd [8, 28] was 3.87 and the pKd [9, 28] was “below the threshold”. For the same binder, the pKd [10, 28] was “below the threshold”, the pKd [11, 28] was 3.76 and the pKd [12, 28] was 3.59. The pKd [13, 28] was “below the threshold”, the pKd [14, 28] was “below the threshold” and the pKd [15, 28] was “below the threshold”. The pKd [16, 28] was “below the threshold”, the pKd [17, 28] was “below the threshold” and the pKd [18, 28] was “below the threshold”. The pKd [19, 28] was “below the threshold”, the pKd [20, 28] was “below the threshold” and the pKd [21, 28] was 3.62. The pKd [22, 28] was “below the threshold”, the pKd [23, 28] was 3.91 and the pKd [24, 28] was “below the threshold”. The pKd [25, 28] was 4.08 and the pKd [26, 28] was “below the threshold”.

RTRQRNETQV [HPV51-E6, P26554] was tested, and the pKd [1, 27] was “below the threshold”, the pKd [2, 27] was “below the threshold” and the pKd [3, 27] was “below the threshold”. For the same binder, the pKd [4, 27] was “below the threshold”, the pKd [5, 27] was “below the threshold” and the pKd [6, 27] was 4.78. For the same binder, the pKd [7, 27] was “below the threshold”, the pKd [8, 27] was “below the threshold” and the pKd [9, 27] was “below the threshold”. For the same binder, the pKd [10, 27] was 4.28, the pKd [11, 27] was 4.13 and the pKd [12, 27] was 4.17. The pKd [13, 27] was “below the threshold”, the pKd [14, 27] was “below the threshold” and the pKd [15, 27] was 4.75. The pKd [16, 27] was “below the threshold”, the pKd [17, 27] was “below the threshold” and the pKd [18, 27] was “below the threshold”. It also gave a pKd [19, 27] of 3.48, a pKd [20, 27] of 5.93 and a pKd [21, 27] of 3.91. For the same binder, the pKd [22, 27] was “below the threshold”, the pKd [23, 27] was 3.61 and the pKd [24, 27] was “below the threshold”. The pKd [25, 27] was 3.84 and the pKd [26, 27] was “below the threshold”.
